In US20110086797:

Target: elongation factor G (EF-G) of B. subtilis, P80868
Sequence (P80868 2-692): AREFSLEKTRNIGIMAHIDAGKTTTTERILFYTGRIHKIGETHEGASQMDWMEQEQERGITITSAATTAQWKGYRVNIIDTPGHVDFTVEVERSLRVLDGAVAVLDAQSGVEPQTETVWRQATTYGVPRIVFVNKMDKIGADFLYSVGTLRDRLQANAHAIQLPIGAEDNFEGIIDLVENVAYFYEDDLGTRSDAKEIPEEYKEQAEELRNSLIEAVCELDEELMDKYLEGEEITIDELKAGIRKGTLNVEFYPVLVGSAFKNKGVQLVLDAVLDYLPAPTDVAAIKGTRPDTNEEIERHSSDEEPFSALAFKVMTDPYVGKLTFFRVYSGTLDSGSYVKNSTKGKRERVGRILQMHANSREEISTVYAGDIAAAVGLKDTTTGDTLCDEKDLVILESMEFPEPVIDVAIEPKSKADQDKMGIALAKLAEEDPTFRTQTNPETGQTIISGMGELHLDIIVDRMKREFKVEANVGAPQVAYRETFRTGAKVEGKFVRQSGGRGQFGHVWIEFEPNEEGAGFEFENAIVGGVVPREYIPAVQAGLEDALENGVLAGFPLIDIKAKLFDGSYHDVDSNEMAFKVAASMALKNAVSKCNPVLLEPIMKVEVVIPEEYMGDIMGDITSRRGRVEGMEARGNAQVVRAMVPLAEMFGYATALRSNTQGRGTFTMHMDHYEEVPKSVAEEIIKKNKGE

B1: PrkC Ser/Thr kinase of B. subtilis (protein)
chain: MLIGKRISGRYQILRVIGGGGMANVYLAEDIILDREVAIKILRFDYANDNEFIRRFRREAQSASSLDHPNIVSIYDLGEEDDIYYIVMEYVEGMTLKEYITANGPLHPKEALNIMEQIVSAIAHAHQNQIVHRDIKPHNILIDHMGNIKVTDFGIATALSSTTITHTNSVLGSVHYLSPEQARGGLATKKSDIYALGIVLFELLTGRIPFDGESAVSIALKHLQAETPSAKRWNPSVPQSVENIILKATAKDPFHRYETAEDMEADIKTAFDADRLNEKRFTIQEDEEMTKAIPIIKDEELAKAAGEKEAEVTTAQENKTKKNGKRKKWPWVLLTICLVFITAGILAVTVFPSLFMPKDVKIPDVSGMEYEKAAGLLEKEGLQVDSEVLEISDEKIEEGLMVKTDPKADTTVKEGATVTLYKSTGKAKTEIGDVTGQTVDQAKKALKDQGFNHVTVNEVNDEKNAGTVIDQNPSAGTELVPSEDQVKLTVSIGPEDITLRDLKTYSKEAASGYLEDNGLKLVEKEAYSDDVPEGQVVKQKPAAGTAVKPGNEVEVTFSLGPEKKPAKTVKEKVKIPYEPENEGDELQVQIAVDDADHSISDTYEEFKIKEPTERTIELKIEPGQKGYYQVMVNNKVVSYKTIEYPKDE
EF-G phosphorylation (immunoprecipitation with anti-EF-G, western blot with anti-phosphothreonine antibody): EF-G (as identified by probing the same fractions with the α-EF-G) phosphorylation increased following exposure to cell free supernatant (FIG. 24D). In contrast, no change in phosphorylation was observed in spores lacking PrkC.
